Experimental data from article doi:10.1101/2023.09.08.556349 (bioRxiv, 2023).

B1: 3548-RBD-15 (antibody, V domains shown)
VH: QVQLQESGPGLVKPSETLSLTCTVSGGSVSSYYWSWIRQPPGKGLEWIGYIYYSGSTNYNPSLKSRVTISVDTSKNQFSLKLSSVTAADTAVYYCAKGIYSSSSYWGDPWGQGTLVTVSS
VL: not shown
B2: 3548-S-2 (antibody, V domains shown)
VH: QVQLVESGPGLVKPSQTLSLTCTVSGGSISSGGYYWSWIRQHPGRGLERIGYIYYSGSTYYNPSLKSRVTISVDTSKDQFSLKLTSVTAADSAVYYCARGSRNDLRDFDYWGQGTLVTVSS
VL: QSVMTQPPSVSGAPGQRVTISCSGSSSNIGNNYVSWYQQLPGTAPKLLIYGNSNRSSRVPDRFSGSKSGTSASLAITGLQAEDEADYYCQSYNSSLSGLVVFGGGTQLTAL

Legend:
[1] = molecular target: SARS-CoV-2 RBD-SD1 (Wu), S residues 319 to 591 (SARS-CoV-2 Wuhan-Hu-1, UniProt P0DTC2); test: ELISA
[2] = molecular target: SARS-CoV-2 Spike S1-His Tag (HPLC-verified), NR-53798 (SARS-CoV-2 Wuhan-Hu-1, UniProt P0DTC2); test: ELISA

Binder | binding result [1] | binding result [2]
B1 | binds | binds
B2 | binds | 
